Results published in patent publication US20240352102A1 (UNITED STATES GOVERNMENT AS REPRESENTED BY THE DEPARTMENT …, published 2024).

Legend:
Experiment in all cases: peptide microarray
Peptide_040 = molecular target: T1, Peptide_040
T1 peptide: GEPPKSGDRSGYSSP

Peptide_046 = molecular target: Peptide_046
Peptide_045 = molecular target: T2, Peptide_045
T2 peptide: PGSRSRTPSLPTPPT

Peptide_067 = molecular target: T3, Peptide_067
T3 peptide: KDNIKHVPGGGSVQI

Peptide_073 = molecular target: T4, Peptide_073
T4 peptide: VTSKCGSLGNIHHKP

Peptide_041 = molecular target: T5, Peptide_041
T5 peptide: KSGDRSGYSSPGSPG

Peptide_052 = molecular target: T6, Peptide_052
T6 peptide: KSPSSAKSRLQTAPV

Peptide_043 = molecular target: T7, Peptide_043
T7 peptide: SSPGSPGTPGSRSRT

Peptide_072 = molecular target: T8, Peptide_072
T8 peptide: DLSKVTSKCGSLGNI

Peptide_056 = molecular target: T9, Peptide_056
T9 peptide: MPDLKNVKSKIGSTE

Peptide_038 = molecular target: T10, Peptide_038
T10 peptide: APKTPPSSGEPPKSG

Peptide_044 = molecular target: T11, Peptide_044
T11 peptide: SPGTPGSRSRTPSLP

Measured: binding result

B1: mAb TRC35 (antibody, V domains shown)
VH: QVQLQQPGTELVKPGASVKLSCKASGYTFTSYWLQWVKQRPGQGLEWIGEIDPSDSYTNYNQKFKGKATLTVDTSSSTAYMQLSSLTSEDSAVYYCATLTGSWGQGTTLAVSS
VL: DVLLTQTPLSLPVSLGDQASISCRASQSIVDSNGNTFLEWYLQKSGQSPKVLIYKVSNRFSGVPDRFSGRGSGTDFTLKISRVEAEDLGVYYCFQGSHVPYTFGGGTKLEIK
notes: Mouse hybridoma monoclonal antibody raised in tau knockout mice against tau/poly(A) RNA complexes; IgG1 isotype, kappa light chain; also called TRC35 monoclonal antibody; hybridoma clone #35
no binding (tested: 1 ug/ml): Peptide_040 | Peptide_046 | Peptide_045 | Peptide_067 | Peptide_073 | Peptide_041 | Peptide_052 | Peptide_043 | Peptide_072 | Peptide_056 | Peptide_038 | Peptide_044
